# According to patent US20140179896A1 (published 2014):
# Where a chain is given by its changes, count along the chain named.
# B1: K2 (designed binder)
# chain: EVVAATPTSLLISWRHPHFPTRYYRITYGETGGNSPVQEFTVPLQPPTATISGLKPGVDYTITGYAVTDGENGQFLLVPISINYRT
# notes: Del 1-8 10Fn3 clone; Flag tag of the assay form not included
# B2: K8 (designed binder)
# chain: B1 chain with D69V, G70T, E71H, Q74H, F75P, L77M, V78T
# notes: as for B1
# B3: K3 (designed binder)
# chain: B1 chain with D69A, E71W, N72D, G73D, Q74H, F75E, L77F, V78I
# notes: as for B1
# B4: K6 (designed binder)
# chain: B1 chain with E71K, N72D, Q74R, F75V, V78T
# notes: as for B1
# B5: K1 (designed binder)
# chain: B1 chain with D69M, E71L, N72Y, Q74H, F75E, V78T
# notes: Del 1-8 10Fn3 clone; tag not included
# B6: K9 (designed binder)
# chain: B1 chain with D69F, E71L, N72Y, Q74K, F75E, V78I
# notes: as for B1
# B7: K7 (designed binder)
# chain: B1 chain with D69S, E71H, G73D, Q74H, F75M, L77M, V78I
# notes: as for B1
# B8: K5 (designed binder)
# chain: B1 chain with D69M, E71P, G73D, Q74N, F75E, V78T
# notes: as for B1
# B9: K4 (designed binder)
# chain: B1 chain with D69A, E71Y, G73D, F75I, L77M, V78T
# notes: as for B1
# B10: 3F11 PR3 (designed binder)
# chain: B1 chain with D69V, E71L, N72T, G73D, Q74H, F75V, V78T
# notes: tag left out
# B11: 2′DelB11 PR4 (designed binder)
# chain: B1 chain with D69V, E71Q, G73D, Q74H, F75E, L77M, V78T
# notes: tag left out
# B12: 4A3 PR3 (designed binder)
# chain: B1 chain with D69V, G70A, E71Q, N72D, G73E, Q74H, F75E, L77I, V78T
# notes: tag left out
# B13: 4B6 PR3 (designed binder)
# chain: B1 chain with D69V, E71Q, G73D, Q74H, F75E, L77F, V78T
# notes: tag left out
# B14: 4D2 PR3 (designed binder)
# chain: B1 chain with D69V, G70A, E71Q, G73N, Q74H, F75E, L77I, V78T
# notes: tag left out
# B15: 3′E6 PR4 (designed binder)
# chain: B1 chain with D69F, E71Q, Q74K, F75E, L76F, L77R, V78I
# notes: tag left out
# B16: 3F5 PR3 (designed binder)
# chain: B1 chain with D69V, G70A, E71Y, G73E, Q74H, F75E, L77Y, V78T
# notes: tag left out
# B17: 3′A3 PR4 (designed binder)
# chain: B1 chain with D69R, G70A, E71Q, G73D, Q74H, F75E, L77I, V78T
# notes: tag left out
# B18: 4′G8 PR4 (designed binder)
# chain: B1 chain with D69V, G70A, E71Q, Q74H, F75E, V78T
# notes: tag left out
# B19: 3G10 PR3 (designed binder)
# chain: B1 chain with D69V, G70V, E71H, Q74H, F75E, L76I, V78T
# notes: tag left out
# B20: 4B7 PR3 (designed binder)
# chain: B1 chain with D69V, G70T, E71Q, G73D, Q74H, F75E, L77F, V78T
# notes: tag left out
# B21: 4G4 PR3 (designed binder)
# chain: B1 chain with D69L, E71Q, G73D, Q74H, F75E, V78T
# notes: tag left out
# B22: 3F1 PR3 (designed binder)
# chain: B1 chain with D69L, G70T, E71H, G73E, F75Y, L77F, V78T
# notes: tag left out
# B23: 2′DelH2 PR4 (designed binder)
# chain: B1 chain with D69V, G70S, E71Q, N72Y, Q74H, F75E, L77I, V78T
# notes: tag left out
# B24: 3E6 PR3 (designed binder)
# chain: B1 chain with D69V, G70P, E71Q, Q74H, F75E, L77I, V78T, P79M
# notes: tag left out
# B25: 4A2 PR3 (designed binder)
# chain: B1 chain with D69V, G70A, E71Q, G73A, Q74H, F75E, L77M, V78T
# notes: tag left out
# B26: 3′D4 PR4 (designed binder)
# chain: B1 chain with D69L, G70A, E71H, G73D, Q74R, F75E, L77I, V78T
# notes: tag left out
# B27: 3′D12 PR4 (designed binder)
# chain: B1 chain with D69G, G70E, E71Q, G73D, Q74Y, F75E
# notes: tag left out
# B28: 3D11 PR3 (designed binder)
# chain: B1 chain with D69L, E71Q, N72E, G73N, F75E, L77I, V78T
# notes: tag left out
# B29: 3D4 PR3 (designed binder)
# chain: B1 chain with D69V, E71W, G73D, Q74H, F75E, L77I, V78T
# notes: tag left out
# B30: 4C11 PR3 (designed binder)
# chain: B1 chain with D69M, G70A, E71Q, G73D, Q74R, F75E, L77I, V78T
# notes: tag left out
# B31: 3G1 PR3 (designed binder)
# chain: B1 chain with D69M, G70A, E71Q, G73V, Q74R, F75E, V78T
# notes: tag left out
# B32: 3′E8 PR4 (designed binder)
# chain: B1 chain with D69V, G70A, E71Q, G73D, Q74R, F75Q, L77F, V78T
# notes: tag left out
# B33: 3F4 PR3 (designed binder)
# chain: B1 chain with D69M, E71Y, N72E, G73D, Q74H, F75E, L77I, V78T
# notes: tag left out
# B34: 3′E4 PR4 (designed binder)
# chain: B1 chain with D69V, E71P, G73D, Q74R, F75E, L77I
# notes: tag left out
# B35: 3C5 PR3 (designed binder)
# chain: B1 chain with D69G, G70D, E71H, G73D, Q74R, F75E, L77M, V78T
# notes: tag left out
# B36: 3G5 PR3 (designed binder)
# chain: B1 chain with D69L, G73D, Q74R, F75K, L77I, V78T
# notes: tag left out
# B37: 3H9 PR3 (designed binder)
# chain: B1 chain with D69V, G70S, E71Q, N72Q, G73N, Q74H, F75E, V78T
# notes: tag left out
# B38: 4C4 PR3 (designed binder)
# chain: B1 chain with D69V, G70A, E71Q, N72D, G73D, Q74H, F75E, L77F, V78T
# notes: tag left out
# B39: 4F12 PR3 (designed binder)
# chain: B1 chain with D69V, G70T, E71Q, Q74H, F75E, L77I, V78T
# notes: tag left out
# B40: 4′B6 PR4 (designed binder)
# chain: B1 chain with D69L, G70A, E71Q, G73D, Q74H, F75E, L77I, V78T
# notes: tag left out
# B41: 3A8 PR3 (designed binder)
# chain: B1 chain with D69E, G70A, E71H, N72H, Q74H, F75E, L77M, V78I
# notes: tag left out
# B42: 3′F7 PR4 (designed binder)
# chain: B1 chain with D69E, E71Q, Q74S, F75E, L77I
# notes: tag left out
# B43: E10 (designed binder)
# chain: B1 chain with D69E, E71R, Q74R, F75E, L77F, V78I
# notes: Del 1-8 10Fn3 clone; Flag tag not included
# B44: E21 (designed binder)
# chain: B1 chain with D69W, E71Y, N72K, G73D, Q74H, F75E, V78I
# notes: Del 1-8 10Fn3 clone; Flag tag of the radioactive-assay form not included
# B45: E2 (designed binder)
# chain: B1 chain with E71P, G73D, Q74R, F75L, L77N, V78I
# notes: as for B44
# B46: E22 (designed binder)
# chain: B1 chain with D69L, E71R, G73D, Q74R, F75E, V78T
# notes: as for B44
# B47: E13 (designed binder)
# chain: B1 chain with D69L, G70E, E71Q, Q74R, F75E, L77M, V78T
# notes: as for B44
# B48: E12 (designed binder)
# chain: B1 chain with D69F, G70A, E71R, N72D, Q74H, F75E, L76I, V78T
# notes: as for B44
# B49: E15 (designed binder)
# chain: B1 chain with D69L, G70E, E71P, Q74R, F75Y, L77M
# notes: as for B44
# Target: T1, human vascular endothelial growth factor receptor-2 Fc chimera (KDR-Fc) (human, UniProt P35968 20-764)
# T1 construct: range 1-764; also called human VEGFR-2; hKDR; not shown: human IgG1 Fc
# Test: radioactive equilibrium binding (assay not given)
# Procedure: (§1) To prepare ³⁵S-labeled binding proteins for analysis, mRNA was prepared as described above for RNA-protein fusion production but the linker ligation step was omitted. The mRNA was expressed using rabbit reticulocyte lysate translation kit (Ambion) in the presence of ³⁵S-labeled Met at 30° C. for 1 hour. Expressed protein was purified on M2-agarose Flag beads (Sigma) as described above. This procedure produced the encoded protein without the nucleic acid tail. In a direct binding assay, VEGF-R2-Fc fusions in concentrations ranging from 0 to 200 nM were added to a constant concentration of the purified protein (0.2 or 0.5 nM) and incubated at 30° C. for 1 hour in buffer B. The receptor-binder complexes were captured using Protein A magnetic beads for another 10 minutes at room temperature using a Kingfisher™ The beads were washed with six reaction volumes of buffer B. The protein was eluted from the beads with 100 μL of 0.1 M KOH. […] of the reaction mixture and elution were dried onto a LumaPlate-96 (Packard) and the amount of ³⁵S on the plate was measured using a TopCount NXT instrument (Packard). The amount of fibronectin-based scaffold protein bound to the target was estimated as a percent of radioactivity eluted from Protein A magnetic beads compare to radioactivity in the reaction mixture. Nonspecific binding of fibronectin-based scaffold proteins to the beads was determined by measuring binding in the absence of KDR-Fc and represented less than 1-2% of the input. Specific binding was obtained through subtraction of nonspecific binding from total binding. Data was analyzed using the GraphPad Prizm software (GraphPad Software, Inc, San Diego, Calif.), fitted using a one site, non-linear binding equation.
row,Kd,Binder
1,1.19 nM,B1
2,3.3 nM,B2
3,1.15 nM,B3
4,0.93 nM,B4
5,0.55 nM,B5
6,1.8 nM,B6
7,2.2 nM,B7
8,1.54 nM,B8
9,1.95 nM,B9

# Target: T2, human vascular endothelial growth factor receptor-2 Fc chimera (KDR-Fc) (human, UniProt P35968 20-764)
# T2 construct: range 1-764; purchased from R&D Systems; also called hKDR; human VEGF-R2-Fc; not shown: human IgG1 Fc
# Test: radioactive equilibrium binding, 1 nM KDR-Fc
# How it was run: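 Receptor-Fc fusions titrated from 0 to 200 nM against a fixed 0.2 or 0.5 nM of ³⁵S-labeled scaffold protein for 1 h at 30° C. Protein A bead pull-down followed by scintillation counting of eluate versus reaction mixture. Specific binding is total minus no-receptor binding, fitted to a one-site nonlinear equation.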
# T2 sequence (P35968 20-764 limits assumed, change not shown, form in doubt): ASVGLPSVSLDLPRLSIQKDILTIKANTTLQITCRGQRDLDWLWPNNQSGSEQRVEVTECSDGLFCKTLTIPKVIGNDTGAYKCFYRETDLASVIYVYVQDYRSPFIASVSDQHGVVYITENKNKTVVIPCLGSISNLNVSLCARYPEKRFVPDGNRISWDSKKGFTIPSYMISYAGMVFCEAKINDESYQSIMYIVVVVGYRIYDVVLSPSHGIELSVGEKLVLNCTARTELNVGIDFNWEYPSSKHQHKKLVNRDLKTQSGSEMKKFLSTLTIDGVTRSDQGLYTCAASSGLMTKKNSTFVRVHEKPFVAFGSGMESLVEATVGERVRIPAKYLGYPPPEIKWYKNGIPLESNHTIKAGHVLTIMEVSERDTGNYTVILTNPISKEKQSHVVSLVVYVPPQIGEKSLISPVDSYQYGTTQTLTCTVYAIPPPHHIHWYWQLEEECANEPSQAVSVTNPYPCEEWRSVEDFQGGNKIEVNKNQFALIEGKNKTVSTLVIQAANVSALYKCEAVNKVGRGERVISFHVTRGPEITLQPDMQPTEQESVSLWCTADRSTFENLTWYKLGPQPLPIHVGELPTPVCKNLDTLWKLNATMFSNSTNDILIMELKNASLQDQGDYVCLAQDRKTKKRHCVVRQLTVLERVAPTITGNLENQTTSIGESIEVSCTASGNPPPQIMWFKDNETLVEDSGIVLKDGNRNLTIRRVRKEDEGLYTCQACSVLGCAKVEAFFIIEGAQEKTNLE
row,"Binding to 1 nM KDR, %",Binder
1,10%,B10
2,11%,B11
3,6%,B12
4,14%,B13
5,8%,B14
6,5%,B15
7,11%,B16
8,9%,B17
9,13%,B18
10,10%,B19
11,13%,B20
12,8%,B21
13,9%,B22
14,8%,B23
15,12%,B24
16,8%,B25
17,12%,B26

row,"Binding to 1 nM KDR, %",Binder
1,7%,B27
2,10%,B28
3,10%,B29
4,14%,B30
5,13%,B31
6,12%,B32
7,10%,B33
8,12%,B34
9,12%,B35
10,13%,B36
11,11%,B37
12,10%,B38
13,13%,B39
14,11%,B40
15,12%,B41
16,14%,B42

# Target: T1, human vascular endothelial growth …
# Test: binding to 1 nM KDR-Fc, % of input; radioactive equilibrium binding (assay not given)
# Procedure: as §1
# T1 sequence (P35968 20-764 limits assumed, change not shown, form in doubt): as above
row,"Binding to 1 nM KDR, %",Binder
1,53%,B43
2,47%,B44
3,53%,B45
4,45%,B46
5,48%,B1
6,38%,B47
7,18%,B2
8,45%,B3
9,27%,B4
10,48%,B5
11,36%,B48
12,35%,B6
13,40%,B7
14,47%,B8
15,52%,B49
16,38%,B9
